Results on six molecules are retold here after patent US20250223358A1 (ANTENGENE BIOLOGICS, published 2025).

By EC50 is commonly meant the midpoint of the concentration-response curve.

Read-outs that look alike come from different tables or passages of the source.

Assay [1] addresses T1, human CD3 (human, UniProt P07766 23-207; P04234 22-171; P09693 23-182). Description: cell-based or functional assay.
Assay [2] has as its target T2, cynomolgus CD3 (cynomolgus (Macaca fascicularis), UniProt Q95LI5 22-198; Q95LI8 22-171; Q95LI7 23-181).
T2 construct: whole, on cells; composition of the 'mix' not defined; also called cynoCD3
Description: FACS on 293T-cynoCD3mix cells.

Assay [3] addresses T1, human CD3. Description: FACS on Jurkat cells.
Assay [4] deals with T1, human CD3. Description: cell-based or functional assay. This is another data set of the same source.
In assay [5] the target is T2, cynomolgus CD3. Description: FACS on 293T-cynoCD3mix cells. The source holds these as a separate data set.

T2 sequence (Q95LI5 22-198, chain 1 of 3): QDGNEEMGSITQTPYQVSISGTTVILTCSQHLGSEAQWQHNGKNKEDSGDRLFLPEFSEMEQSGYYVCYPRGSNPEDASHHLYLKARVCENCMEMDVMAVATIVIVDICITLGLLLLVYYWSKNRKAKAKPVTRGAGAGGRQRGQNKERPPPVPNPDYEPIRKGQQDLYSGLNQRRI
T2 sequence (Q95LI8 22-171, chain 2 of 3): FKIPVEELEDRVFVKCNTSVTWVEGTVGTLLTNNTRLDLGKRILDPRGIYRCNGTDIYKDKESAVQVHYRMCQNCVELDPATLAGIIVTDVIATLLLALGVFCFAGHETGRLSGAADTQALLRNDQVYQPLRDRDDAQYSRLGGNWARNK
T2 sequence (Q95LI7 23-181, chain 3 of 3): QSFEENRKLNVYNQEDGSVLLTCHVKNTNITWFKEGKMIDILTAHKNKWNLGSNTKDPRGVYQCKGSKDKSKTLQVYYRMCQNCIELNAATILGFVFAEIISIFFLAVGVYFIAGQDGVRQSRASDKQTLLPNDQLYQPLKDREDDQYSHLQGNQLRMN
T1 sequence (P07766 23-207, chain 1 of 3): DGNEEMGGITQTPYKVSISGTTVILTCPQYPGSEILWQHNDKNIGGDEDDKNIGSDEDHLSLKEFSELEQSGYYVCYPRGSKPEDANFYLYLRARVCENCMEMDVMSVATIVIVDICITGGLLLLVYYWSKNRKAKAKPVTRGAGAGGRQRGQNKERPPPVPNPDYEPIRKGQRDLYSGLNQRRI
T1 sequence (P04234 22-171, chain 2 of 3): as the sequence (Q95LI8 22-171, chain 2 of 3) above, with V5I, K15N, V20I, T32S, N33D, N34I, A64T, N74S, L83V, R141H counted along it
T1 sequence (P09693 23-182, chain 3 of 3): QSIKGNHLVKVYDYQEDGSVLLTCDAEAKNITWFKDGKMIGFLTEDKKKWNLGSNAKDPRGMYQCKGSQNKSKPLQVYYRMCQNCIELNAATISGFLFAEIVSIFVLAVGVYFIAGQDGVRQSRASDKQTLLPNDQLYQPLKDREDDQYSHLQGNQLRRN

B1: ch127E2D3 (antibody, V domains shown)
VH: QVQLQQPGTELVKPGASVKLSCKASGYTFTSYWMHWVKQRPGEGLEWIGNIYPGSSSINYNEKFKSKATLTVDKSSSTAYMQLSSLTSEDSAVYYCARDRSSQYYFDYWGQGTTLTVSS
VL: DIVMSQSPSSLAVSAGEKVTMSCKSSQSLLNSRTRKNYLAWYQQKPGQSPKLLIYWASTRESGVPDRFTGSGSGTDFTLTISSVQAEDLAVYYCTQSYNLRTFGGGTKLEIK
Take B1: in the assay with human CD3 [1], the “EC50 (Jurkat-NFAT-luciferase activation)” value was 61.7 nM and the “Top signal (Jurkat-NFAT-luciferase activation)” value stood at 337. In addition, in the assay with cynomolgus CD3 [2], it took 2.33 nM to reach a half-maximal effect (EC50) and the Top signal was 46900.

B2: ch124E3D6 (antibody, V domains shown)
VH: QVQLQQPGTELVKPGASVKLSCKASGYTFTSYWMHWVKQRPGQGLEWIGNINPSNGDTNYNEKFKSKATLTVDKSSSTAYMQLSSLTSEDSAVYYCARDRSSQYYFDYWGQGTTLTVSS
VL: DIVMSQSPSSLAVSAGEKVTMSCKSSQSLLNSRTRKNYLAWYQQKPGQSPKLLIYWASTRESGVPDRFTGSGSGTDFTLTISSVQAEDLAVYYCKQSYNLRTFGGGTKLEIK
In the case of B2, in the assay with human CD3 [1], the “EC50 (Jurkat-NFAT-luciferase activation)” value is 32.4 nM and the “Top signal (Jurkat-NFAT-luciferase activation)” value came to 482. Further, in the assay with cynomolgus CD3 [2], the EC50 was determined as 2.64 nM and the Top signal came out at 45800.

B3: ch140D2B10 (antibody, V domains shown)
VH: QVQLQQPGTELVKPGASVKLSCKASGYTFTSYWMHWVKQRPGQGLEWIGNINPSNGESNYNEKFKSKATLTVDKSSSTAYMQLSSLTSEDYAVYYCARDRSSQYYFDYWGQGTTLTVSS
VL: DIVMSQSPSSLAVSAGEKVTMSCKSSQSLLNSRTRKNYLAWYQQKPGQSPKLLIYWASTRESGVPDRFTGSGSGTDFTLTISSVQAEDLAVYYCKQSYTLRTFGGGTKLEIK
In the assay with cynomolgus CD3 [2], B3 gave an EC50 of 2.81 nM and a Top signal of 52900.

B4: ch133B4C7 (antibody, V domains shown)
VH: QVQLQQPGTELVKPGASVKLSCKASGYTFTSYWMHWVKQRPGQGLEWIGNINPSNGDTNFNEKFKSKATLTVDKSSSTAYMQLSSLTSEDSAVYYCARDRSSQYYFDYWGQGTTLTVSS
VL: DIVMSQSPSSLAVSAGEKVTMSCNSSQSLLNSRTRKNYLAWYQQKPGQSPKLLIYWASTRESGVPDRFTGSGSGTDFTLTISSVQAEDLAVYYCKQSYTLRTFGGGTKLEIK
In the case of B4, in the assay with human CD3 [1], the “EC50 (Jurkat-NFAT-luciferase activation)” value amounted to 28 nM and the “Top signal (Jurkat-NFAT-luciferase activation)” value is 290. Also, in the assay with cynomolgus CD3 [2], the EC50 was 2.81 nM and the Top signal was determined as 45200.

B5: hu147E2-L3H3 (antibody, V domains shown)
VH: EVQLVQSGAEVKKPGSSVKVSCKASGYTFTSYWMHWVRQAPGQGLEWMGNINPSNGATNYNEKFKSRVTLTVDKSTSTAYMELSSLRSEDTAVYYCARDRSSQYYFDYWGQGTTVTVSS
VL: DIQMTQSPSSLSASVGDRVTITCKSSQSLLNSRSRKNYLAWYQQKPGKAPKLLIYWASTRESGVPSRFSGSGSGTDFTLTISSLQPEDFATYYCTQSYTLRTFGGGTKVEIK
notes: humanized 147E11E2; also called hu14E2-L3H3
Take B5: in the assay with human CD3 [3], a half-maximal response (EC50) required 0.659 nM and the “Top FACS signal” value was found to be 2680. Further, in the assay with human CD3 [4], the “EC50_Fold change (Jurkat-NFAT-luciferase activation, normalized to ch147E11E2)” value was 1.36 fold and the “Top FACS signal_Fold change (Jurkat-NFAT-luciferase activation, normalized to ch147E11E2)” value came to 0.68 fold. Besides, in the assay with cynomolgus CD3 [5], the EC50 was 1.63 nM and the Top signal was determined as 19000.

B6: hu147E2-L3H2 (antibody, V domains shown)
VH: EVQLVQSGAEVKKPGSSVKVSCKASGYTFTSYWMHWVRQAPGQGLEWMGNINPSNGATNYNEKFKSRVTITADKSTSTAYMELSSLRSEDTAVYYCARDRSSQYYFDYWGQGTTVTVSS
VL: DIQMTQSPSSLSASVGDRVTITCKSSQSLLNSRSRKNYLAWYQQKPGKAPKLLIYWASTRESGVPSRFSGSGSGTDFTLTISSLQPEDFATYYCTQSYTLRTFGGGTKVEIK
notes: humanized 147E11E2; also called hu14E2-L3H2
As to B6, in the assay with human CD3 [3], the midpoint of the response, the EC50, lay at 0.891 nM and the “Top FACS signal” value worked out at 2730. In the assay with human CD3 [4], the “EC50_Fold change (Jurkat-NFAT-luciferase activation, normalized to ch147E11E2)” value worked out at 1.66 fold and the “Top FACS signal_Fold change (Jurkat-NFAT-luciferase activation, normalized to ch147E11E2)” value was 0.76 fold. In the assay with cynomolgus CD3 [5], the EC50 came out at 1.77 nM and the Top signal is 19200.
